# Experiment: soluble on expression in E. coli; label from the status in PepcDB or PDB records
row,Sequence,soluble on expression in E. coli
1,MSQLDLLNIVHRPRRLRRTAALRNLVQENTLTVNDLVFPLFVMPGTNAVEEVSSMPGSFRFTIDRAVEECKELYDLGIQGIDLFGIPEQKTEDGSEAYNDNGILQQAIRAIKKAVPELCIMTDVALDPFTPFGHDGLVKDGIILNDETVEVLQKMAVSHAEAGADFVSPSDMMDGRIGAIREALDETDHSDVGILSYAAKYASSFYGPFRDALHSAPQFGDKSTYQMNPANTEEAMKEVELDIVEGADIVMVKPGLAYLDIVWRTKERFDVPVAIYHVSGEYAMVKAAAAKGWIDEDRVMMESLLCMKRAGADIIFTYYAKEAAKKLR,soluble
2,MSHLLTMSELSEVEISEILKDAEDFANGKESKTTEQTFVANLFFENSTRTRFSFEVAEKRLGLDVLNFSADASSVQKGETLYDTIRTLESIGTKAVVIRHEQDRYFDELKDQVNIPILNAGDGCGNHPTQCLLDLLTIKQEFGRFEGLKIAIVGDVRHSRVARSNAEALTKLGATIYFASPEEWKDEDNTFGTYKPLDELVPEVDVMMLLRVQHERHDHYETDIMKEYHEKHGLTVEREKRMKEGSIIMHPAPVNRDVEIASELVECERSRIFKQMENGVYVRMAVLKRALPNVLGGMKHELFV,not soluble
3,MATPSLTDACVHCGFCLSDCPSYRVLGRETDSPRGRVYLMDSLQQGRIELSDTVVEHFDTCLGCLACTSACPSGVQYDQLIEEMRQRIAQEHRRPWPEAIWRKLLFAFLPLEHHHHHH,soluble
4,MLSKFVVVEVSNSNNTMTLVEYLVTHGFDKFAVVTDLVDHPSFKYKDGSSSPESPSTTASTAAQHTPPRTAVSTPTSINTPVPPHQNKQRHSIDKIAANLSTKKVSPSSIEKQLQRTSHNPLHQLSTPHALSQLQKLLEEQHKINQMNIQKKEQERQQAEIQRILLQQANAAQINHSFGLERLTPEYDDNHHSETISKASSEDLKTEPDSTDFGLGTSDDQVRASMLHLLHPVFAPAFGMLDAENIFGAASKPTTPASKRRNTDSNGAPSKKHRWLPVNELEESRSSRGKNCGRVHCKATYKCALCGKPTTLNSTGSRWNLLRHVIMIHSDCKPYKCWDCDFTGIKSNVISHARQCRHNAEDAHDITTDEMRAEWNLRLHECFPDYVRAKERGWQPEEVTVKKEEVEESPTLVKQELTLVKQEPTFAEQLEPMAQPLV,soluble
5,MGGSHHHHHHGDDDDKMTKTFKTLDDFLGTHFIYTYDNGWEYEWYAKNDHTVDYRIHGGMVAGRWVTDQKADIVMLTEGIYKISWTEPTGTDVALDFMPNEKKLHGTIFFPKWVEEHPEITVTYQNEHIDLMEQSREKYATYPKLVVPEFANITYMGDAGQNNEDVISEAPYKEMPNDIRNGKYFDQNYHRLNK,soluble
6,MGSDKIHHHHHHMNYKNRKRAYYQENSCMDNFICKNCGCLVVPEGAGTQHRNHCPHCLHSLHVDIIPGDRAADCDANMEPIGVWVRKNGEWAIIHRCTRCGHLSSNRIAADDNSVKLMSIALKPLAQPPFPLERIIEKLEKEETE,not soluble
7,MDTESFKREFLPYHRKLYCVAYRLLENAADAEDLVQEAYLKLWDKREGLSVISNPEAFSVTLVKNMCFDLLRSGKYVLSRQSVELSAAQDVFQPDNLEAREGVRQIKDIIAHLPEQQQRIINMRDIKGCSYEEIEQVTGLNSINVRVLLSRARKKIREEFNKWNNYESRRN,not soluble
8,MATPTFDTIEAQASYGIGLQVGQQLSESGLEGLLPEALVAGIADALEGKHPAVPVDVVHRALREIHERADAVRRERFKAMAAEGVKYLEENREKDGVNSTESGLQFRVLTQGEGAIPARTDRVRVHYTGKLIDGTVFDSSVARGEPAEFPVNGVIAGWIEALTLMPVGSKWELTIPQELAYGERGAGASIPPFSTLVFEVELLEIL,not soluble
9,MEETNAFSAFNQLLMSQNVVSPTKQPMELTNEKLMEFVRNAMQNQQGLPEVPNIIPSALPSMLSQIPTQPMPQMPVVIQTSQMNDVMGDQMLKASPSASSDMSSLDSDVADHPMTMMMQQQQDFQNPLQQLTIDSSANIAAGVNGNTEQRSSGRHETWLECFNTTKFAEYEALLFSVYVAERTDRKYDGWTYFDCLHRLQSKCRYRVRAKKQDEFYIIEEKGVHNHGAVEPVGQAGSHAGLPKTIREIVDRSYNENWPVEARTIKVDEEIQRLGLPENPRLGRQIDNRLAYLRRVKNLHETRRIQDQVNGTMVIKDPVKEAMLQALMEQNGGQLTVGQGFVDQIIANQGIPEMPIKKEEPTQPVESMEMAEQVAKPLAMNPSPDFFQFLQNQKLSHEHEQQQQQLHAAILAQAQAHAQAQAQAQQNLMESQKNIHQ,not soluble
10,MADERRCGVCRPLGGPRQPWPAGLLHCSSRAIFASLCMPRIVFAPAIQRHVAMPALDVGAATVAAALQAAFAREPRLRGYLLDDQGSLRRHVALFVDGVQVRDRRGLGDPLQDDSEIYVVQALSGGLEHHHHHH,not soluble
11,MAHHHHHHMSWRVSCKTALLDELFTYIAGKTDANTLQKECVLALPQLETLAKMLGFSLDDMSMYRLAWSWSCEAPLCIRKSEFVNGMNAICSGVKLSATATSSTCSASPVKSPKKEFEPILLALRNHVETLDGALRGDVTKFRHFYRFIYKWVQSPLTMERNMGQVGMSIETAVELWRMLFPHYREFKRLDDWITFCMSKKLFPHGIISRDLWEQLLEFTFVTDYSKYDVSDAWPSAMDDFVEYVKSKV,not soluble
12,MGSDKIHHHHHHMNLRRLKYFIKIVDVGSLTQAADILHIAQPALSQQLATLEGEVNQKLLIRTKRGVTPTNAGKILYSHAQAILRQCAQAQSAIDRAGGELSGSVSVGLAPGTAAQQLALPLMAEVQRQYPGIVLYFNENFGTTLSELIMNGRMDMAVIYDNRNIHGLRFIPLMKEPLCFVCPNSLMKPKKEITLAEVAQHNLFLPRIYNIMRKIVDEAFIKEGLTYQVKCEIESQTTLNAVLAAGMGCTIMPDSAARSMLNASNAWMAKIIDPDIYASLSFCMSDHLSLSEPAEVVKNILLSLMADRTPDNRPLTLVS,not soluble
13,MKNKTKNATLKSIIDVILYENPSTQDEIAERLGITRRYVTKLLQPLIREGVVRRAYIVDIKKFDEFPELFGEEVTSREYAGSFFIKEILRDMAQHVCKQLNKSFRSLEEYDEDLANEALKMDYITNTMHEKVRSSVDTAIAMNPYSEFSKTMAFTEIAYDLERIGDHSAIIANFAIKESYEVDPAMMEYLRDMFSIAVEMVKTAMDAFLNEKLELKATLMSLEDDIHRIQKNALNCVATQMAETPFEDKERSTYYISLSRVVKTLERIADISIEIFDTAGEYYRNIPRTTTPERFRRREREES,soluble
14,MVELCELHMMPEEDQWPDDIDARIAALNFCGEDSMLFESVDPSVSTDSLDSQQFRERCQMKKEDFQLAFADSGHWQSGINDNLTTWGRIRTSEPLDERTASAPDVWNVKRSDSARSPNRPNSLIANFVSGDATRFVDVNDNEIREANEEIIRKDRWRRDSARRCSSGGQNQKRTFADILEKNVTAPTSMAITSSDNEKPPKLDFLAMHHEMPSLCESFTASFRDAIIKMQKCEPLPSITSTNDFPLFFQEDSPDSGLGCSGPSHIEDWQSLSVLLPKHVAEACSFFKSNTQLLTSSTSKTAPQTSTNIVSNCIDRRISGISASANEACRTCYRVRRRIHPPVWAQTAQSKTVLCDCASTPTDTNFSFAPTTSTTRHQLRAKELSIVGLPIYAAKRTLVENVVEGVAAISRGDGSDLLVIAMRCLIEDGLQENVSAWTMIQTVTSKGPATKDVHSIVKQLEECSKTDNVKVEIFFEELIRENSLDCWLCYIVLKEKVLKTLYSENAFLLSASSEYRTLLWRMVDSLSLLPVIEARSDSVHQQFKSMQQWGGASRIASDSRVPKSSSFPARLSTAPSRRSRIPLSTSRISISSTTSTPRSARSPSTTSRIRVASIMGDFTLANFSLSDGEKVSVLSTRGGLARCVRLTTSHSKINNGVIPIEHLLFQ,not soluble
15,MIAQQFNRARHILRHNLVRPFYQPKFYLESGKLAGFEALLRWYDEDNQIQLPKLIINAFEDYSLASRLSEKMQLNIFKDMASWINQGLQLVPVSINAAPVEFLKDNYAELLLERLNQFEIPYHLIEIEITEHLLDDQGKNFISRALAKLKQNGIRIALDDFGTGHSSLTRLANLPVDCLKIDCDFVQRMEQEKFISALVQSVILMSNNLGIDVVAEGIESQEQLELLKQQGCEVGQGFLFSQA,not soluble
16,MTLFDRKTFDRVLGEWPGVRFVDQWDSHVAKVGDKVFAVLGEREDWRLVVKCSEESFEILTSLEGIAQAPYFAKRKWISIGDHSPLEQEELEHYVRRSYELVAAGLTKKLRGELGIVIDNAPRL,soluble
17,MLQQVREQVAARLRLDAGRPWLMVHAGSGGSANNLSIEQYARLIIKLNQACPELQCILTAGPGEERIAEQLAAELLAHGGNGWIYRSDEGLPKFCQVMANAALFVAGSTGPLHIAAALDVPTIGFFPAHRSATPLRWRPLNSEGRHLAFSPPEDSDHPEDMSQLDPKTMAAAIARWAPPFWRTEHLEHHHHHH,not soluble
18,MTIENDYAKLKELMEFPAKMTFKVAGINREGLAQDLIQVVQKYIKGDYIPKEKRSSKGTYNSVSIDIIAENFDQVETLYKELAKVEGVKMVI,not soluble
19,MSFQLDQSTSVIKTAPPGRLEFKNEPIDIASSNIQDLAKMQTLDGYYQQTSLQLPQSQQYHRMYENVYNNQQILYAQTQNFQYPSTLLTNGSLAQTEWRGQQMDTSAYSNTGYSRSSTSQQPQYTQQVTENERIVYKPVDMPSPVDSGIGGDISILNPKEEFFTSADGGSMLERSSERTLSHRDSPLVIPKLYNNLGFQYVLEAPISTSVRRDDDRMTYVNKGQFYTVSLEYTPDLNKCLKSQTVKSQLMVVFREDKTYEEEIKTWQSWHARQHVSKQRILEIDSKNSSGMIGQIEEIGNNAVQFYWNPSDPSGVRISIAVQCLSTDFSTQKGVKGLPLHVQIDTYDGENDKVPFHRGYCQIKVFCDKGAERKLRDEDKRAQKRKVQEYTAGALPGGRKKSDGEYHDQCERSEFYHMRELDKPAALFIAPEEFEPRYVDSTSLSFDMSEIEPIPTKRPRTSERIMLYVRKRDEQIYQPLHVVPASLSGLALAIANKFGADPDKMSGVYKRCAKGITVKVDDEMLRLYCNEDTFIIDVEHATDGSTAATLIEVAPTNPNSYSNS,not soluble
20,MSWLRTELWTAEVVYTGFGTPMLRGALAVQGGFVVGQGSLEELRARFPEGEVVHKGLALLPPPVNAHTHLDLSLLPLYRGPFAGFLSHVVAHRERRGLEGAKRGLEELLASGVGAFADIVFKDEVMDFLLQESPLPGVAFYEVFAPEPSLAEEVYRAVRRKVEAWRRREGKVKVGLSPHAPYSVSPPLLKRLAEWARAEGLPLMVHAAESPEEVAFLLRGEGPLREVYGRFAKTPWTPPGTTPVRHLHALGVLGPTTLLVHGVQVDEEEVGLLAETGTKVVLCPRSNRNLEVGEAPLALYAKHGVELALGTDSRGSSPDLDVKNEARFLWGRAEPRLLVRALTRGGYRALGLPTPRLTRGTPLSLVHFL,soluble
21,MAHHHHHHMLHNGKKNPTQAVDDGNPRKSKHREVGSHCKGLDKKENINKSGEEHIKKVEGRENCEPHDIKRRGEIDKVLIQCEELQRKELEALKLIYVRDRELVIQNENDEKRDTIIHMQLNDENISDNVINLTFELPKDYPLKSFLLIDINVKNFTPDMNNYLNQEVYKDMPNYIAHENSILSIIYRINELVENIQNSKKTSVDHSYLSSEEREEYVEEGAFDPSEDQLIKDHVPFLYCSGMTYSHHRRVLARRLCYSHHILSLVKRTYIIKWAKDLKIGGYSKIGYPGIIICEGPKEEVDFYINSLNKLRWKHFDCRGMEDIILKEYEDLDDARVLPRTMYELDPKGMSTLSNICTECGLRDLFLTSMKIYHT,not soluble

# — the DeepSol protein solubility set
